{
  "source": "patent US20100209938A1",
  "key": {"[1]": {"target": "α4YFP nAChR subunit (mouse) (UniProt O70174)", "sequence (O70174 31-629)": "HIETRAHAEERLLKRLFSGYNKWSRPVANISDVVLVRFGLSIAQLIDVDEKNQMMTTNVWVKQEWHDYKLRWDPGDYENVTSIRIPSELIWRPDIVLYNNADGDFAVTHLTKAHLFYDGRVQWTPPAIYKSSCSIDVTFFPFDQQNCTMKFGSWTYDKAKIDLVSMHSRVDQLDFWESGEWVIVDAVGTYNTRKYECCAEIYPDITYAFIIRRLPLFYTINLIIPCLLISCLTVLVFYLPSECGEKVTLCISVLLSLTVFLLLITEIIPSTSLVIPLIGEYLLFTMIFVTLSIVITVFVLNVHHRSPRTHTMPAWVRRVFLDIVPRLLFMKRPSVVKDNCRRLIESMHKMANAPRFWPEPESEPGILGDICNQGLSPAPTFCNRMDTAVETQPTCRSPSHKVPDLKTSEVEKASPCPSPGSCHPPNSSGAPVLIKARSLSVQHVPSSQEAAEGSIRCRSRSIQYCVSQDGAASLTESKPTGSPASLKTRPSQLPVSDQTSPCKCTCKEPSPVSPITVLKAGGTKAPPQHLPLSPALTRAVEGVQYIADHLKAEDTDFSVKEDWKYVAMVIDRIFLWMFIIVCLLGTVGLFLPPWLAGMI", "assay": "pixel-by-pixel sensitized emission FRET (NFRET), whole-cell ROI, N2a cells"}, "[2]": {"target": "α4YFP nAChR subunit (mouse) (UniProt O70174)", "assay": "pixel-by-pixel sensitized emission FRET, Gaussian fit of the NFRET distribution, N2a cells"}},
  "data": [
    {"substance": "β2CFP nAChR subunit (from UniProt Q9ERK7 26-501) (receptor)", "values": [
      {"measurement": "mean NFRET for all pixels", "setting": "[1]", "result": 0.2},
      {"measurement": "mean NFRET of first Gaussian component", "setting": "[2]", "result": 0.19},
      {"measurement": "mean NFRET of second Gaussian component", "setting": "[2]", "result": 0.28}
    ]}
  ]
}
